B1: extracellular domain of rat NLGN2 (Val43-His612, containing the site A insert) (domain or fragment, UniProt Q62888-1 43-612, looked up)
chain: VVNTAYGRVRGVRRELNNEILGPVVQFLGVPYATPPLGARRFQPPEAPASWPGVRNATTLPPACPQNLHGALPAIMLPVWFTDNLEAAATYVQNQSEDCLYLNLYVPTEDGPLTKKRDEATLNPPDTDIRDSGKKPVMLFLHGGSYMEGTGNMFDGSVLAAYGNVIVATLNYRLGVLGFLSTGDQAAKGNYGLLDQIQALRWLSENIAHFGGDPERITIFGSGAGASCVNLLILSHHSEGLFQKAIAQSGTAISSWSVNYQPLKYTRLLAAKVGCDREDSTEAVECLRRKSSRELVDQDVQPARYHIAFGPVVDGDVVPDDPEILMQQGEFLNYDMLIGVNQGEGLKFVEDSAESEDGVSASAFDFTVSNFVDNLYGYPEGKDVLRETIKFMYTDWADRDNGEMRRKTLLALFTDHQWVAPAVATAKLHADYQSPVYFYTFYHHCQAEGRPEWADAAHGDELPYVFGVPMVGATDLFPCNFSKNDVMLSAVVMTYWTNFAKTGDPNQPVPQDTKFIHTKPNRFEEVVWSKFNSKEKQYLHIGLKPRVRDNYRANKVAFWLELVPHLHNLH
B2: MDGA1 C8 (Ig1–Ig2; Y22-T237) (domain or fragment, human, UniProt Q8NFP4-1 22-237, looked up)
chain: YAPAQAQIVHAGQACVVKEDNISERVYTIREGDTLMLQCLVTGHPRPQVRWTKTAGSASDKFQETSVFNETLRIERIARTQGGRYYCKAENGVGVPAIKSIRVDVQYLDEPMLTVHQTVSDVRGNFYQEKTVFLRCTVNSNPPARFIWKRGSDTLSHSQDNGVDIYEPLYTQGETKVLKLKNLRPQDYASYTCQVSVRNVCGIPDKAITFRLTNTT
modifications: TAMRA label ((5/6)-TAMRA-SE) in the FP assays; no label told for the crystals
B3: MDGA1 C4 (Ig1–Ig4; Y22-I433) (domain or fragment, human, UniProt Q8NFP4-1 22-433, looked up)
chain: YAPAQAQIVHAGQACVVKEDNISERVYTIREGDTLMLQCLVTGHPRPQVRWTKTAGSASDKFQETSVFNETLRIERIARTQGGRYYCKAENGVGVPAIKSIRVDVQYLDEPMLTVHQTVSDVRGNFYQEKTVFLRCTVNSNPPARFIWKRGSDTLSHSQDNGVDIYEPLYTQGETKVLKLKNLRPQDYASYTCQVSVRNVCGIPDKAITFRLTNTTAPPALKLSVNETLVVNPGENVTVQCLLTGGDPLPQLQWSHGPGPLPLGALAQGGTLSIPSVQARDSGYYNCTATNNVGNPAKKTVNLLVRSMKNATFQITPDVIKESENIQLGQDLKLSCHVDAVPQEKVTYQWFKNGKPARMSKRLLVTRNDPELPAVTSSLELIDLHFSDYGTYLCMASFPGAPVPDLSVEVNI
modifications: TAMRA label ((5/6)-TAMRA-SE) in the FP assay
B4: MDGA1 C2 (Ig1–Ig3; Y22-K330) (domain or fragment, human, UniProt Q8NFP4-1 22-330, looked up)
chain: YAPAQAQIVHAGQACVVKEDNISERVYTIREGDTLMLQCLVTGHPRPQVRWTKTAGSASDKFQETSVFNETLRIERIARTQGGRYYCKAENGVGVPAIKSIRVDVQYLDEPMLTVHQTVSDVRGNFYQEKTVFLRCTVNSNPPARFIWKRGSDTLSHSQDNGVDIYEPLYTQGETKVLKLKNLRPQDYASYTCQVSVRNVCGIPDKAITFRLTNTTAPPALKLSVNETLVVNPGENVTVQCLLTGGDPLPQLQWSHGPGPLPLGALAQGGTLSIPSVQARDSGYYNCTATNNVGNPAKKTVNLLVRSMK
modifications: TAMRA label ((5/6)-TAMRA-SE) in the FP assay

One data set addresses NLGN2-Fc (UniProt Q8NFZ4). Briefly: cell-surface binding assay. The note with it: cited from earlier work.
For the next data set, the target named is neurexin 1β (UniProt P58400). Put plainly: SPR. The note with it: cited from earlier work.
The data set “crystal structure” concerns the molecule itself. Briefly: crystal structure.
Data set [1] has as its target B1. Briefly: fluorescence polarisation. A general note: In fluorescence polarisation assays a small probe gives low polarisation when free and higher when bound to something large.

Bounds are passed on as bounds.

In general, Kd refers to the free concentration of one partner at which half of the binding sites on the other are occupied at equilibrium, for simple one-to-one binding. By stoichiometry N is commonly meant a count of units in the complex or per binding partner.

Sequence of NLGN2-Fc (Q8NFZ4 15-677): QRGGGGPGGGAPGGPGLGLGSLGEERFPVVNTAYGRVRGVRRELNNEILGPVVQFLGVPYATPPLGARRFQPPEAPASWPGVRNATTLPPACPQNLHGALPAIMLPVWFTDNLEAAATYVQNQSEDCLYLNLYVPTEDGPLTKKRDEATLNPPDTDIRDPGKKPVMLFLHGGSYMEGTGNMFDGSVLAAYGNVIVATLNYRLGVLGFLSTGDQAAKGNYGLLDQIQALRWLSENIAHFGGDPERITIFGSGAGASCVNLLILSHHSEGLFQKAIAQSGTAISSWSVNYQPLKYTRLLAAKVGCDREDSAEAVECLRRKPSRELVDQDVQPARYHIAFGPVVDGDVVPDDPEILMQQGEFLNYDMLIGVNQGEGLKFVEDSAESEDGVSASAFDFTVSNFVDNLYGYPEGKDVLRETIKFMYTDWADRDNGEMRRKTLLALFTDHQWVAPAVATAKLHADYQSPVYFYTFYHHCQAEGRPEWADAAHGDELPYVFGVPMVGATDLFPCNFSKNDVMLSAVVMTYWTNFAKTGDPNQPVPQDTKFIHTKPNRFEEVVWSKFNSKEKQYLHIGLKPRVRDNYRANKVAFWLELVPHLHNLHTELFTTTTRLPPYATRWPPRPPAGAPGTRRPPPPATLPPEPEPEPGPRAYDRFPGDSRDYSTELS
Sequence of neurexin 1β (P58400 51-396): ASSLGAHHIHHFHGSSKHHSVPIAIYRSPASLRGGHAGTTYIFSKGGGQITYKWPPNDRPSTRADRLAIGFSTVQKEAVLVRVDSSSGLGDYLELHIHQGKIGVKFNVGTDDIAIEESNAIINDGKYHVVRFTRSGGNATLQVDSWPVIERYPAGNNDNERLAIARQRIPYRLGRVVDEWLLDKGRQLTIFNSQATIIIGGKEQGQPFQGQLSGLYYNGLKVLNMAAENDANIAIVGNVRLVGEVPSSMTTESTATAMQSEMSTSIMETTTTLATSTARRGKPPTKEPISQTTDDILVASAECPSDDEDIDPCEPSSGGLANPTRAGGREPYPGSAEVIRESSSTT

MDGA2 (from UniProt Q7Z553): the Kd in the data set with NLGN2-Fc was 46 nM. On to MDGA1 (from UniProt Q8NFP4), for which the Kd with NLGN2-Fc was 7 nM. With NLGN1 (from UniProt Q62765), in the data set with neurexin 1β, the dissociation constant Kd is more than 10 µM. As to B1, in “crystal structure”, the “stoichiometry N” value was determined as 2.

Molecule B2 registered a Kd in data set [1] of 21 nM. As for B3, in data set [1], the binding result is “binds”. B4: the binding result in data set [1] is listed as “binds”.

The values above are taken from article PMC5745067 (Neuron, 2017).
